Laboratory results from publication PMC6591361, “Recombinant production of human α2-macroglobulin variants and interaction studies with recombinant G-related α2-macroglobulin binding protein and latent transforming growth factor-β2” (Scientific Reports, 2019).

B1: Strep-tagged G-related α2M-binding protein (GRAB), V34-N181 (domain or fragment)
chain: GAMVDSPIEQPRIIPNGGTLTNLLGNAPEKLALRNEERAIDELKKQAIEDKEATTAIEAASSDALEALADQTDALQSEEAAVVKADNAASDALEALADQTDALQSEEAEVVQSDNAASDAWEKAATPIALDVKKTKDTKPVVKKEERQNVN
notes: residues left at the N-terminus after TEV cleavage, from the cloning strategy; also called Strep-tagged GRAB; pCri-H6-TEV-GRAB-STREP; source: E. coli BL21 (DE3), purified (Streptactin XT, IEC, SEC); not shown: His6, N-terminal, cleaved; Strep-tag, C-terminal, kept
B2: G-related α2M-binding protein (GRAB), V34-N181, untagged (domain or fragment)
chain: B1 chain
notes: residues left at the N-terminus after TEV cleavage, from the cloning strategy; the theoretical mass of 15.8 kDa that it compares with fits the untagged form (surmise); also called pCri-H6-TEV-GRAB; source: E. coli BL21 (DE3), purified (Ni-NTA, TEV cleavage, reverse Ni-NTA, IEC, SEC); not shown: His6, N-terminal, cleaved

Legend:
Settings in all cases: both partners purified
[1] = target: T1, methylamine-induced authentic human α2-macroglobulin (human, UniProt P01023 24-1474, thioester bond opened by methylamine, producing a free cysteine); assay: SPR; as a1, affinity analysis: steady-state responses (Req) against analyte concentration, 1:1 model
T1 construct: human α2-macroglobulin, UniProt P01023; plasma protein as m1, induced form; Tetramer (684.1 kDa by SEC-MALLS); also called induced hα2M; induced authentic hα2M
T1 sequence (looked up): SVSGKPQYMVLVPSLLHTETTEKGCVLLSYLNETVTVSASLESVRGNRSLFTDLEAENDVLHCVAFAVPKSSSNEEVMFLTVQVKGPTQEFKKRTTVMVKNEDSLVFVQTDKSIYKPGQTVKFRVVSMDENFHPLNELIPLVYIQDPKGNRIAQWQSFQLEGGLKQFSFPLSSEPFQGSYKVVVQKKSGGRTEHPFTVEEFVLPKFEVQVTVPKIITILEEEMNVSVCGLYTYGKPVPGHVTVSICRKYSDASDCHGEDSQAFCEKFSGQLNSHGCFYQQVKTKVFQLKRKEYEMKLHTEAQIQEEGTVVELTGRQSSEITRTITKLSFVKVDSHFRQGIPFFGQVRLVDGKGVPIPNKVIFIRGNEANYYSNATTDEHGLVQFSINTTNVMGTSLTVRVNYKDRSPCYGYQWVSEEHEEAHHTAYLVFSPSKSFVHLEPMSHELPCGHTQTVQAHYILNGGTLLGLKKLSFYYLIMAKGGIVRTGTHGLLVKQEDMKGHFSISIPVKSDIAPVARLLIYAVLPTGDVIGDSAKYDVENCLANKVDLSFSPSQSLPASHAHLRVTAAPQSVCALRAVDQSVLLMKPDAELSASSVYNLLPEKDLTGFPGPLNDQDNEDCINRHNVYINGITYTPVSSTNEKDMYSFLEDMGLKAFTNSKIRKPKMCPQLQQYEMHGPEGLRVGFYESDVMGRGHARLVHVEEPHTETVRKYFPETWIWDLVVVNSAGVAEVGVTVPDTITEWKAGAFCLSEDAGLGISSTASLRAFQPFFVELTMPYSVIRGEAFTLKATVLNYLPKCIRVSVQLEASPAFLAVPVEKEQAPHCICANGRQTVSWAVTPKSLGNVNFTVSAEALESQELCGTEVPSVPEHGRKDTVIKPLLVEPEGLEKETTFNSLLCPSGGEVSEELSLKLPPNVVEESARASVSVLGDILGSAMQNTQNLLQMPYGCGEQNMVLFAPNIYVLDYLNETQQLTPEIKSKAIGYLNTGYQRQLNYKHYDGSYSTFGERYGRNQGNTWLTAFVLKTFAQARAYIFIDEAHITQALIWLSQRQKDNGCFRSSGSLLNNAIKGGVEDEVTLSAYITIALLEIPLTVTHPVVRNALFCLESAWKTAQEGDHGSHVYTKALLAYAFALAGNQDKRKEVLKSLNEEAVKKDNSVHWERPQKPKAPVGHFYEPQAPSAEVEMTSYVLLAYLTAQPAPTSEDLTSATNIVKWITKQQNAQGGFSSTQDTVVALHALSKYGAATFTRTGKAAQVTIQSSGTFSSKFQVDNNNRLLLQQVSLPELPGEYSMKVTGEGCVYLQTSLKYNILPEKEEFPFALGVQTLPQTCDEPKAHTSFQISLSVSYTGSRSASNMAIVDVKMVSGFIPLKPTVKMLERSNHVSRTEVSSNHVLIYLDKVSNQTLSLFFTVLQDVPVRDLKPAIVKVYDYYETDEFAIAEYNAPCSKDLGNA

[2] = target: T2, native authentic human α2-macroglobulin (human, UniProt P01023 24-1474, thioester bond intact (native form)); assay: as above
T2 construct: human α2-macroglobulin, UniProt P01023, 1,474-residue precursor; as secreted it lacks the signal peptide (recombinant constructs begin at S24); Tetramer (680.6 kDa by SEC-MALLS); glycosylated; also called hα2M; native hα2M; source: purified from human blood plasma of individual donors (PEG 4,000 precipitation, zinc-chelating resin, IEC, SEC)
T2 sequence (looked up): T1 sequence (looked up)

[3] = target: T2, native authentic human α2-macroglobulin; assay: SPR; Strep-tagged GRAB (9.7 nM) captured on Streptactin XT on a CM5 chip; analytes injected in multicycle runs (4–600 nM authentic hα2M, 75–1,200 nM N-hα2M and C-hα2M); HBNS (10 mM HEPES, 150 mM sodium chloride, pH 7.4), 37 °C; kinetic fit, 1:1 Langmuir model
[4] = target: T1, methylamine-induced authentic human …; assay: SEC-MALS; SEC-MALLS, Superose 6 10/300, buffer J (20 mM sodium phosphate, 150 mM sodium chloride, pH 7.4), 25 °C; GRAB to authentic hα2M at a molar ratio of 4:1; triplicate
[5] = target: T2, native authentic human α2-macroglobulin; assay: as above

Row | Binder | Kd [1] | Kd [2] | Kd [3] | koff [3] | kon [3] | stoichiometry N [4] | stoichiometry N [5]
1 | B1 | 94.6 nM | 34.5 nM | 14.3 nM | 0.0019 s⁻¹ | 132000 M⁻¹ s⁻¹ |  | 
2 | B2 |  |  |  |  |  | 2 GRAB per hα2M tetramer | 1.7 GRAB per hα2M tetramer
